Results published in patent US20150368351A1 (ENGMAB SARL, published 2015).

T1: recombinant human BCMA Fc(kih) (human, UniProt Q02223 4-53, biotin on the avi-tag at the C-terminus of the Fc knob chain (BirA, in vivo))
T1 construct: range 4-53;domain: Fc portion (hole chain); Monomeric Fc fusion made in HEK EBNA cells: one BCMA extracellular domain on the knob chain, paired with an unfused hole chain; also called huBCMA Fc(kih); biotinylated human BCMA; not shown: hinge and Fc portion of human IgG1, knob chain (knobs-into-holes)
T1 chain (looked up): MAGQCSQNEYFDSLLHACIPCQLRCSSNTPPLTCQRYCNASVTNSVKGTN

T2: human BCMA on BCMA-expressing multiple myeloma cells (H929, RPMI-8226) (human, UniProt Q02223 1-184)
T2 construct: whole, on cells; Endogenous BCMA on H929 (ATCC CRL-9068) or RPMI 8226 (ATCC CCL-155) cells; also called TNFRSF17; H929 cells
T2 sequence (looked up): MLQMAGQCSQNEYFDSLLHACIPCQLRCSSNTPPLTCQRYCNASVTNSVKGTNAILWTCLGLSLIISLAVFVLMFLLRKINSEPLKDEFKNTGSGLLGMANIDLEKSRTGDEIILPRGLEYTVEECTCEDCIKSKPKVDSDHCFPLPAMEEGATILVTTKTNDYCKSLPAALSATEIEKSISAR


Assays:
[1] = target: T1, recombinant human BCMA Fc(kih); assay: SPR, Biacore T200, 25 C; IgG captured by anti-human Fab antibody on CM5 chip, BCMA Fc(kih) as analyte, 1:1 Langmuir
[2] = target: T2, human BCMA on BCMA-expressing multiple …; assay: flow cytometry on H929 cells; IgG 20 µg/mL incubated together with competitor Δ-APRIL 2.5 µg/mL; fluorochrome-conjugated anti-human Fc detection
[3] = target: T1, recombinant human BCMA Fc(kih); assay: SPR, ProteOn XPR36, 25 C; biotinylated BCMA on NLC chip by neutravidin capture, Fab as analyte, 1:1 Langmuir
[4] = target: T1, recombinant human BCMA Fc(kih); assay: competition ELISA; biotinylated human BCMA on neutravidin plate saturated with 500 or 1000 nM Fab, competitor murine APRIL 50 nM (1000 ng/mL); anti-FLAG-HRP, OD450-650
[5] = target: T1, recombinant human BCMA Fc(kih); assay: competition ELISA; biotinylated human BCMA on neutravidin plate saturated with 500 or 1000 nM Fab, competitor murine APRIL 6.25 nM (140 ng/mL); anti-FLAG-HRP, OD450-650

Kd [1]	koff [1]	kon [1]	Reduction (↓) in binding of anti-BCMA antibodies in presence of APRIL [2]	Kd [3]	Reduction (↓) in OD values in presence of muAPRIL [4]	Reduction (↓) in OD values in presence of muAPRIL [5]	Binder
5.1 nM	0.00036 s⁻¹	72000 M⁻¹ s⁻¹	25%				13A4 anti-BCMA IgG (antibody, V domains shown) VH: EVQLVQSGAEVKKPGESLKISCKGSGYSFTSYWIGWVRQMPGKGLEWMGIIYPGDSDTRYSPSFQGQVTISADKSISTAYLQWSSLKASDTAMYYCARNGYLGDYWGQGTLVTVSS VL: not shown
				1.8 nM	13.1%	7.7%	anti-BCMA Fab clone 13A4 (Fab, V domains shown, detected by anti-FLAG antibody) VH: EVQLVQSGAEVKKPGESLKISCKGSGYSFTSYWIGWVRQMPGKGLEWMGIIYPGDSDTRYSPSFQGQVTISADKSISTAYLQWSSLKASDTAMYYCARNGYLGDYWGQGTLVTVSS VL: not shown
